Results reported in US20200317768A1 (published 2020).

T1: cynomolgus monkey FcγRIIa2 extracellular domain, His-tagged (cynomolgus monkey)
T1 construct: also called cyno FcgRIIa2; cynoFcγRIIa2; not shown: His-tag added to the C-terminus
T1 chain: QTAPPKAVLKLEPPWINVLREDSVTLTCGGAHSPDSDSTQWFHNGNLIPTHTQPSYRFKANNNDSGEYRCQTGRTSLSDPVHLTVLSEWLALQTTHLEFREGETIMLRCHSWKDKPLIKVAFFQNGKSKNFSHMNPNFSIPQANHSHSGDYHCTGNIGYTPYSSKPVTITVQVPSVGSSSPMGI

T2: cynomolgus monkey FcγRIIa3 extracellular domain, His-tagged (cynomolgus monkey)
T2 construct: also called cyno FcgRIIa3; cynoFcγRIIa3; not shown: His-tag added to the C-terminus
T2 chain: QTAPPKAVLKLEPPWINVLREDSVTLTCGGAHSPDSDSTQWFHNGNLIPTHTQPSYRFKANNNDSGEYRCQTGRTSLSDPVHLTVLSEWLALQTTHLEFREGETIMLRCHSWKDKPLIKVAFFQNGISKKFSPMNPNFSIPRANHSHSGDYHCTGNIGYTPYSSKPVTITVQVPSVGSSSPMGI

T3: human FcγRIIaH extracellular domain, His-tagged (human, UniProt P12318 34-217)
T3 construct: also called human FcgRIIaH; FcγRIIa (type H); not shown: His-tag added to the C-terminus
T3 sequence: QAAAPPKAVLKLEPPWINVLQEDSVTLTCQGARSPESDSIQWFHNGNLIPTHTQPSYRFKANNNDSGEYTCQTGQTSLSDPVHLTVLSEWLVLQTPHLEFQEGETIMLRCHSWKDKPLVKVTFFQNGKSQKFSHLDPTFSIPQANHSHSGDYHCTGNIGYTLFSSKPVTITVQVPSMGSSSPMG

T4: cynomolgus monkey FcγRIIa1 extracellular domain, His-tagged (cynomolgus monkey)
T4 construct: also called cyno FcgRIIa1; cynoFcγRIIa1; not shown: His-tag added to the C-terminus
T4 chain: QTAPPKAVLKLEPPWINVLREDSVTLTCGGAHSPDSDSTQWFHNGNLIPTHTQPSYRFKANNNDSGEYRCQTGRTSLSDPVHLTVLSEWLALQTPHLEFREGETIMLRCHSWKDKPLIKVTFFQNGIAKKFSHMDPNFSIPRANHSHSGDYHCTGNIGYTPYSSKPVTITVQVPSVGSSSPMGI


Columns and labels:
Assay in all cases: SPR; KD of SG1 divided by KD of the variant;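 note: relative to parent M103205H795-SG1 carrying the SG1 human heavy chain constant region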
[1] = target: T1, cynomolgus monkey FcγRIIa2 …
Procedure: (§1) Regarding such interactions, KD values were calculated using the following 1:1 binding model described in BIACORE® T100 Software Handbook BR1006-48 Edition AE.
(§2) The behavior of interacting molecules according to the 1:1 binding model on BIACORE® can be described by Equation 1: Req=C·R max/(KD+C)+RI, wherein, Req is a plot of steady-state binding levels to analyte concentration. C is concentration, RI is bulk refractive index contribution in the sample, and Rmax is analyte binding capacity of the surface. When this equation is rearranged, KD can be expressed as Equation 2: KD=C·Rmax/(Req−RI)−C. KD can be calculated by substituting the values of Rmax, RI, and C into Equation 1 or Equation 2. From the current measurement conditions, RI=0, C=2 μmol/L can be used.
(§3) The resultant variants were expressed using M103202L889-SK1 as light chain and their affinity to human and cynoFcγRs were evaluated (Table 21).

[2] = target: T2, cynomolgus monkey FcγRIIa3 …
Procedure: as §1, §2, §3

[3] = target: T3, human FcγRIIaH extracellular domain, …
Procedure: as §1, §2, §3

[4] = target: T4, cynomolgus monkey FcγRIIa1 …
Procedure: as §1, §2, §3

| Binder | KD fold (SG1 = 1) [1] | KD fold (SG1 = 1) [2] | KD fold (SG1 = 1) [3] | KD fold (SG1 = 1) [4] |
| --- | --- | --- | --- | --- |
| MS1032LO06-SG1 (M103205H795-SG1/M103202L889-SK1) (antibody, human IgG1, kappa, Anti-latent myostatin antibody; Parent of the Fc variants; copies: 2 + 2) heavy: not shown light: DIVMTQSPATLSLSPGERATLSCTSSQSVYHANWLSWFQQKPGQPPKLLIYWASTLAYGVPSRFSGSGSGTDFTLTISSLQPEDAATYYCAGGYGGGRYAFGQGTKVEIKRTVAAPSVFIFPPSDEQLKSGTASVVCLLNNFYPREAKVQWKVDNALQSGNSQESVTEQDSKDSTYSLSSTLTLSKADYEKHKVYACEVTHQGLSSPVTKSFNRGEC | 1 fold | 1 fold | 1 fold | 1 fold |
| M103205H795-MY201/M103202L889-SK1 (antibody, human IgG1, kappa, Fc variant G236N/H268D/A330K (EU numbering) of SG1; also called MS1032LO06-MY201; copies: 2 + 2) heavy: QVTLKESGPVLVKPTETLTLTCTVSGIDLSHDDISWVRQAPGKGLEWVGIISYAGSTYYASWAKGRLTISKDTSKNQVVLTMTNMDPVDTATYYCARGVPAYSHGGDLWGQGTLVTVSSASTKGPSVFPLAPSSKSTSGGTAALGCLVKDYFPEPVTVSWNSGALTSGVHTFPAVLQSSGLYSLSSVVTVPSSSLGTQTYICNVNHKPSNTKVDKKVEPKSCDKTHTCPPCPAPELLNGPSVFLFPPKPKDTLMISRTPEVTCVVVDVSDEDPEVKFNWYVDGVEVHNAKTKPREEQYNSTYRVVSVLTVLHQDWLNGKEYKCKVSNKALPKPIEKTISKAKGQPREPQVYTLPPSREEMTKNQVSLTCLVKGFYPSDIAVEWESNGQPENNYKTTPPVLDSDGSFFLYSKLTVDKSRWQQGNVFSCSVMHEALHNHYTQKSLSLSP light: DIVMTQSPATLSLSPGERATLSCTSSQSVYHANWLSWFQQKPGQPPKLLIYWASTLAYGVPSRFSGSGSGTDFTLTISSLQPEDAATYYCAGGYGGGRYAFGQGTKVEIKRTVAAPSVFIFPPSDEQLKSGTASVVCLLNNFYPREAKVQWKVDNALQSGNSQESVTEQDSKDSTYSLSSTLTLSKADYEKHKVYACEVTHQGLSSPVTKSFNRGEC | 3.6 fold | 4.4 fold | 0.8 fold | 2.3 fold |
| M103205H795-MY264/M103202L889-SK1 (antibody, human IgG1, kappa, copies: 2 + 2) heavy: QVTLKESGPVLVKPTETLTLTCTVSGIDLSHDDISWVRQAPGKGLEWVGIISYAGSTYYASWAKGRLTISKDTSKNQVVLTMTNMDPVDTATYYCARGVPAYSHGGDLWGQGTLVTVSSASTKGPSVFPLAPSSKSTSGGTAALGCLVKDYFPEPVTVSWNSGALTSGVHTFPAVLQSSGLYSLSSVVTVPSSSLGTQTYICNVNHKPSNTKVDKKVEPKSCDKTHTCPPCPAPELLLGPSVFLFPPKPKDTLMISRTPEVTCVVVDVSDEDPEVKFNWYVDGVEVHNAKTKPREEQYNSTYRVVSVLTVLHQDWLNGKEYKCKVSNKALPKPIEKTISKAKGQPREPQVYTLPPSREEMTKNQVSLTCLVKGFYPSDIAVEWESNGQPENNYKTTPPVLDSDGSFFLYSKLTVDKSRWQQGNVFSCSVMHEALHNHYTQKSLSLSP light: DIVMTQSPATLSLSPGERATLSCTSSQSVYHANWLSWFQQKPGQPPKLLIYWASTLAYGVPSRFSGSGSGTDFTLTISSLQPEDAATYYCAGGYGGGRYAFGQGTKVEIKRTVAAPSVFIFPPSDEQLKSGTASVVCLLNNFYPREAKVQWKVDNALQSGNSQESVTEQDSKDSTYSLSSTLTLSKADYEKHKVYACEVTHQGLSSPVTKSFNRGEC | 0.9 fold | 1.1 fold | 0.5 fold | 0.6 fold |

More lines, now with the values ahead:

| KD fold (SG1 = 1) [1] | KD fold (SG1 = 1) [2] | KD fold (SG1 = 1) [3] | KD fold (SG1 = 1) [4] | Binder |
| --- | --- | --- | --- | --- |
| 1.3 fold | 3.1 fold | 2.9 fold | 0.9 fold | M103205H795-MY261/M103202L889-SK1 (antibody, human IgG1, kappa, copies: 2 + 2) heavy: QVTLKESGPVLVKPTETLTLTCTVSGIDLSHDDISWVRQAPGKGLEWVGIISYAGSTYYASWAKGRLTISKDTSKNQVVLTMTNMDPVDTATYYCARGVPAYSHGGDLWGQGTLVTVSSASTKGPSVFPLAPSSKSTSGGTAALGCLVKDYFPEPVTVSWNSGALTSGVHTFPAVLQSSGLYSLSSVVTVPSSSLGTQTYICNVNHKPSNTKVDKKVEPKSCDKTHTCPPCPAPELLHGPSVFLFPPKPKDTLMISRTPEVTCVVVDVSDEDPEVKFNWYVDGVEVHNAKTKPREEQYNSTYRVVSVLTVLHQDWLNGKEYKCKVSNKALPKPIEKTISKAKGQPREPQVYTLPPSREEMTKNQVSLTCLVKGFYPSDIAVEWESNGQPENNYKTTPPVLDSDGSFFLYSKLTVDKSRWQQGNVFSCSVMHEALHNHYTQKSLSLSP light: DIVMTQSPATLSLSPGERATLSCTSSQSVYHANWLSWFQQKPGQPPKLLIYWASTLAYGVPSRFSGSGSGTDFTLTISSLQPEDAATYYCAGGYGGGRYAFGQGTKVEIKRTVAAPSVFIFPPSDEQLKSGTASVVCLLNNFYPREAKVQWKVDNALQSGNSQESVTEQDSKDSTYSLSSTLTLSKADYEKHKVYACEVTHQGLSSPVTKSFNRGEC |
| 1.4 fold | 1.2 fold | 0.8 fold | 0.7 fold | M103205H795-MY260/M103202L889-SK1 (antibody, human IgG1, kappa, copies: 2 + 2) heavy: QVTLKESGPVLVKPTETLTLTCTVSGIDLSHDDISWVRQAPGKGLEWVGIISYAGSTYYASWAKGRLTISKDTSKNQVVLTMTNMDPVDTATYYCARGVPAYSHGGDLWGQGTLVTVSSASTKGPSVFPLAPSSKSTSGGTAALGCLVKDYFPEPVTVSWNSGALTSGVHTFPAVLQSSGLYSLSSVVTVPSSSLGTQTYICNVNHKPSNTKVDKKVEPKSCDKTHTCPPCPAPELLMGPSVFLFPPKPKDTLMISRTPEVTCVVVDVSDEDPEVKFNWYVDGVEVHNAKTKPREEQYNSTYRVVSVLTVLHQDWLNGKEYKCKVSNKALPKPIEKTISKAKGQPREPQVYTLPPSREEMTKNQVSLTCLVKGFYPSDIAVEWESNGQPENNYKTTPPVLDSDGSFFLYSKLTVDKSRWQQGNVFSCSVMHEALHNHYTQKSLSLSP light: DIVMTQSPATLSLSPGERATLSCTSSQSVYHANWLSWFQQKPGQPPKLLIYWASTLAYGVPSRFSGSGSGTDFTLTISSLQPEDAATYYCAGGYGGGRYAFGQGTKVEIKRTVAAPSVFIFPPSDEQLKSGTASVVCLLNNFYPREAKVQWKVDNALQSGNSQESVTEQDSKDSTYSLSSTLTLSKADYEKHKVYACEVTHQGLSSPVTKSFNRGEC |
| 1.7 fold | 2.3 fold | 2.2 fold | 1 fold | M103205H795-MY263/M103202L889-SK1 (antibody, human IgG1, kappa, copies: 2 + 2) heavy: QVTLKESGPVLVKPTETLTLTCTVSGIDLSHDDISWVRQAPGKGLEWVGIISYAGSTYYASWAKGRLTISKDTSKNQVVLTMTNMDPVDTATYYCARGVPAYSHGGDLWGQGTLVTVSSASTKGPSVFPLAPSSKSTSGGTAALGCLVKDYFPEPVTVSWNSGALTSGVHTFPAVLQSSGLYSLSSVVTVPSSSLGTQTYICNVNHKPSNTKVDKKVEPKSCDKTHTCPPCPAPELLQGPSVFLFPPKPKDTLMISRTPEVTCVVVDVSDEDPEVKFNWYVDGVEVHNAKTKPREEQYNSTYRVVSVLTVLHQDWLNGKEYKCKVSNKALPKPIEKTISKAKGQPREPQVYTLPPSREEMTKNQVSLTCLVKGFYPSDIAVEWESNGQPENNYKTTPPVLDSDGSFFLYSKLTVDKSRWQQGNVFSCSVMHEALHNHYTQKSLSLSP light: DIVMTQSPATLSLSPGERATLSCTSSQSVYHANWLSWFQQKPGQPPKLLIYWASTLAYGVPSRFSGSGSGTDFTLTISSLQPEDAATYYCAGGYGGGRYAFGQGTKVEIKRTVAAPSVFIFPPSDEQLKSGTASVVCLLNNFYPREAKVQWKVDNALQSGNSQESVTEQDSKDSTYSLSSTLTLSKADYEKHKVYACEVTHQGLSSPVTKSFNRGEC |
| 3 fold | 2.1 fold | 4.9 fold | 1.7 fold | M103205H795-MY262/M103202L889-SK1 (antibody, human IgG1, kappa, copies: 2 + 2) heavy: QVTLKESGPVLVKPTETLTLTCTVSGIDLSHDDISWVRQAPGKGLEWVGIISYAGSTYYASWAKGRLTISKDTSKNQVVLTMTNMDPVDTATYYCARGVPAYSHGGDLWGQGTLVTVSSASTKGPSVFPLAPSSKSTSGGTAALGCLVKDYFPEPVTVSWNSGALTSGVHTFPAVLQSSGLYSLSSVVTVPSSSLGTQTYICNVNHKPSNTKVDKKVEPKSCDKTHTCPPCPAPELLVGPSVFLFPPKPKDTLMISRTPEVTCVVVDVSDEDPEVKFNWYVDGVEVHNAKTKPREEQYNSTYRVVSVLTVLHQDWLNGKEYKCKVSNKALPKPIEKTISKAKGQPREPQVYTLPPSREEMTKNQVSLTCLVKGFYPSDIAVEWESNGQPENNYKTTPPVLDSDGSFFLYSKLTVDKSRWQQGNVFSCSVMHEALHNHYTQKSLSLSP light: DIVMTQSPATLSLSPGERATLSCTSSQSVYHANWLSWFQQKPGQPPKLLIYWASTLAYGVPSRFSGSGSGTDFTLTISSLQPEDAATYYCAGGYGGGRYAFGQGTKVEIKRTVAAPSVFIFPPSDEQLKSGTASVVCLLNNFYPREAKVQWKVDNALQSGNSQESVTEQDSKDSTYSLSSTLTLSKADYEKHKVYACEVTHQGLSSPVTKSFNRGEC |
